{"source": "paper doi:10.1101/283192", "binders": {"B1": {"name": "CHIP (carboxyl terminus of heat shock 70-interacting protein), wild type, His-tagged recombinant, Q9UNE7 1-303 (natural protein)", "chain": "MKGKEEKEGGARLGAGGGSPEKSPSAQELKEQGNRLFVGRKYPEAAACYGRAITRNPLVAVYYTNRALCYLKMQQHEQALADCRRALELDGQSVKAHFFLGQCQLEMESYDEAIANLQRAYSLAKEQRLNFGDDIPSALRIAKKKRWNSIEERRIHQESELHSYLSRLIAAERERELEECQRNHEGDEDDSHVRAQQACIEAKHDKYMADMDELFSQVDEKRKKRDIPDYLCGKISFELMREPCITPSGITYDRKDIEEHLQRVGHFDPVTRSPLTQEQLIPNLAMKEVIDAFISENGWVEDY"}, "B2": {"name": "CHIP-K30A, His-tagged recombinant, Q9UNE7 1-303 (natural protein)", "chain": "B1 chain with K30A"}, "B3": {"name": "myc-CHIP-K30A (pcDNA3-mycCHIP-K30A), Q9UNE7 1-303 (natural protein)", "chain": "B1 chain with K30A"}, "B4": {"name": "myc-CHIP wild type (pcDNA3-mycCHIP), Q9UNE7 1-303 (natural protein)", "chain": "B1 chain"}}, "details_in_all_cases": "remark: other sources report otherwise", "key": {"[1]": {"molecular_target": "T1, CHIP (carboxyl terminus of heat shock 70-interacting protein), wild type, His-tagged recombinant (human), Q9UNE7", "T1 chain": "B1 chain", "assay": "SEC-MALS"}, "[2]": {"molecular_target": "T2, CHIP-K30A, His-tagged recombinant (human), Q9UNE7", "T2 chain": "B1 chain with K30A", "assay": "SEC-MALS"}, "[3]": {"molecular_target": "T3, myc-CHIP-K30A (pcDNA3-mycCHIP-K30A) (human), Q9UNE7", "T3 chain": "B1 chain with K30A", "assay": "native gel or EMSA"}, "[4]": {"molecular_target": "T4, myc-CHIP wild type (pcDNA3-mycCHIP) (human), Q9UNE7", "T4 chain": "B1 chain", "assay": "native gel or EMSA"}}, "note": "Residue numbers refer to the chain shown, from its start. In names and notes the source's numbering stands.", "data": [{"binder": "B1", "values": [{"measurement": "stoichiometry N", "setting": "[1]", "value": 2}]}, {"binder": "B2", "values": [{"measurement": "stoichiometry N", "setting": "[2]", "value": 2}]}, {"binder": "B3", "values": [{"measurement": "stoichiometry N", "setting": "[3]", "value": 2}]}, {"binder": "B4", "values": [{"measurement": "stoichiometry N", "setting": "[4]", "value": 2}]}]}
